# What was measured:
# [1] = target: human TrkB (tropomyosin receptor kinase B) expressed on CHO reporter cells (human) (UniProt Q16620); assay: cell-based or functional assay
# [2] = target: mouse TrkB, endogenous on mouse cortical neurons and mouse embryonic stem cell line (mouse) (UniProt P15209); assay: cell-based or functional assay
# Sequence of UniProt P15209 (P15209 32-821): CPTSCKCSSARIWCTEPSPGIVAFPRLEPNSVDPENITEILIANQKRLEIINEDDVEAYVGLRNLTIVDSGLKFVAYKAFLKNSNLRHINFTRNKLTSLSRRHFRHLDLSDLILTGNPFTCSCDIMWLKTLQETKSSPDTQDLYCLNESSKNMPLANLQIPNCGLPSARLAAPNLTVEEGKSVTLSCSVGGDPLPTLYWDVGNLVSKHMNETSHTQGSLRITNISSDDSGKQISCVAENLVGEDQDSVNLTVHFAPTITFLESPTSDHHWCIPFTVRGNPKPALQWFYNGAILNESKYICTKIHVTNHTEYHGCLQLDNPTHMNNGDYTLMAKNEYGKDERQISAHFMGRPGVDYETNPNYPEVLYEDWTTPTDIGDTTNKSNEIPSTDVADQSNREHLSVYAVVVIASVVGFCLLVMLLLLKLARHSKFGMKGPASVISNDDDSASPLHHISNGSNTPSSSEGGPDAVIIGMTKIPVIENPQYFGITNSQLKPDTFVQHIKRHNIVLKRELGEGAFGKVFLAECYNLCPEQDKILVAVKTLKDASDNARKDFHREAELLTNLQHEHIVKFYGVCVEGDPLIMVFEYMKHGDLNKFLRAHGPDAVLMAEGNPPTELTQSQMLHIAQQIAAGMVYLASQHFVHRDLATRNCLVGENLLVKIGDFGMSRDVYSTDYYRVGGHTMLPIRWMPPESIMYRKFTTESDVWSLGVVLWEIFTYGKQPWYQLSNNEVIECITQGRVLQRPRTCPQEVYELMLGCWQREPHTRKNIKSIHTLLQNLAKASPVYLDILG
# Sequence of UniProt Q16620 (Q16620 32-822): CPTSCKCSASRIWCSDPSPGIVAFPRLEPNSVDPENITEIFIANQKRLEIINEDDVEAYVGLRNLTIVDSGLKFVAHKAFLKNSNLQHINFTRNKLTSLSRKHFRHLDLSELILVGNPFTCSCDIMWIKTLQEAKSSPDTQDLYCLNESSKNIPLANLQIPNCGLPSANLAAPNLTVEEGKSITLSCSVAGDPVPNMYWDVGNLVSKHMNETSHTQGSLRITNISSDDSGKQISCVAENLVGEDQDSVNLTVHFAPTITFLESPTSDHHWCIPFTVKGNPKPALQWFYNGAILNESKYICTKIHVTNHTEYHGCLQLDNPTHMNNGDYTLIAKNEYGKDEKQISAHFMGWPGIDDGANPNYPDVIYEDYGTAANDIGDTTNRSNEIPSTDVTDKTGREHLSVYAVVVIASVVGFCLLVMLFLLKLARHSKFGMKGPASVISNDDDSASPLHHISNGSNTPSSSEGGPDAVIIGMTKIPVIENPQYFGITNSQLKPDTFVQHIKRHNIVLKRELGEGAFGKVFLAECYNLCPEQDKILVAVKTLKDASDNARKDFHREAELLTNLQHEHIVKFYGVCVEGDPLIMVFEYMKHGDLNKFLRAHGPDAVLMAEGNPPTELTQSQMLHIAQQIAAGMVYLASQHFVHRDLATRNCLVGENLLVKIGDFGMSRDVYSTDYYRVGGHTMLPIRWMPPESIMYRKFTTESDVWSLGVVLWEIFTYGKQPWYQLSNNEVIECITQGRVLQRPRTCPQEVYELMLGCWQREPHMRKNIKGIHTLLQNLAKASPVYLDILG
substance,measurement,setting,value
brain derived neurotrophic factor (BDNF) (from UniProt P23560 129-247) (ligand),signaling in human TrkB reporter cell,[1],2 nM
same,TrkB phosphorylation in mouse embryonic stem cell line,[2],2 nM

# From US20190177418A1
